In the assay the target is T1, DEC-205 receptor of dog spleen cells (dog, UniProt A0A8I3Q134 28-1723).
T1 construct: whole, on cells; It only reports that no 205 kDa band was isolated
Put plainly: immunoprecipitation from spleen white cell lysate, SDS-PAGE. The method, then: For this purpose Jurkat cells (the cell line of human T lymphocytes) as well as white cells obtained from the spleens of different animals (pigs and dogs) were lysed in an immunoprecipitation buffer (PBS pH 7.4, 1% Triton X-100 with protease inhibitor). […] Then, 50 μL of A-Sepharose protein (Pierce, Rockford, Ill., USA) was used for immunoprecipitation, with incubation being done for one hour at ambient temperature. The immune complexes that were formed were washed extensively. The immunoprecipitates were eluted by boiling for five minutes in a sample buffer with SDS. These precipitates were analyzed on a 10% SDS-PAGE gel under reducing conditions using molecular weight markers. […] The molecular weights are indicated.

T1 sequence (A0A8I3Q134 entry or part of it): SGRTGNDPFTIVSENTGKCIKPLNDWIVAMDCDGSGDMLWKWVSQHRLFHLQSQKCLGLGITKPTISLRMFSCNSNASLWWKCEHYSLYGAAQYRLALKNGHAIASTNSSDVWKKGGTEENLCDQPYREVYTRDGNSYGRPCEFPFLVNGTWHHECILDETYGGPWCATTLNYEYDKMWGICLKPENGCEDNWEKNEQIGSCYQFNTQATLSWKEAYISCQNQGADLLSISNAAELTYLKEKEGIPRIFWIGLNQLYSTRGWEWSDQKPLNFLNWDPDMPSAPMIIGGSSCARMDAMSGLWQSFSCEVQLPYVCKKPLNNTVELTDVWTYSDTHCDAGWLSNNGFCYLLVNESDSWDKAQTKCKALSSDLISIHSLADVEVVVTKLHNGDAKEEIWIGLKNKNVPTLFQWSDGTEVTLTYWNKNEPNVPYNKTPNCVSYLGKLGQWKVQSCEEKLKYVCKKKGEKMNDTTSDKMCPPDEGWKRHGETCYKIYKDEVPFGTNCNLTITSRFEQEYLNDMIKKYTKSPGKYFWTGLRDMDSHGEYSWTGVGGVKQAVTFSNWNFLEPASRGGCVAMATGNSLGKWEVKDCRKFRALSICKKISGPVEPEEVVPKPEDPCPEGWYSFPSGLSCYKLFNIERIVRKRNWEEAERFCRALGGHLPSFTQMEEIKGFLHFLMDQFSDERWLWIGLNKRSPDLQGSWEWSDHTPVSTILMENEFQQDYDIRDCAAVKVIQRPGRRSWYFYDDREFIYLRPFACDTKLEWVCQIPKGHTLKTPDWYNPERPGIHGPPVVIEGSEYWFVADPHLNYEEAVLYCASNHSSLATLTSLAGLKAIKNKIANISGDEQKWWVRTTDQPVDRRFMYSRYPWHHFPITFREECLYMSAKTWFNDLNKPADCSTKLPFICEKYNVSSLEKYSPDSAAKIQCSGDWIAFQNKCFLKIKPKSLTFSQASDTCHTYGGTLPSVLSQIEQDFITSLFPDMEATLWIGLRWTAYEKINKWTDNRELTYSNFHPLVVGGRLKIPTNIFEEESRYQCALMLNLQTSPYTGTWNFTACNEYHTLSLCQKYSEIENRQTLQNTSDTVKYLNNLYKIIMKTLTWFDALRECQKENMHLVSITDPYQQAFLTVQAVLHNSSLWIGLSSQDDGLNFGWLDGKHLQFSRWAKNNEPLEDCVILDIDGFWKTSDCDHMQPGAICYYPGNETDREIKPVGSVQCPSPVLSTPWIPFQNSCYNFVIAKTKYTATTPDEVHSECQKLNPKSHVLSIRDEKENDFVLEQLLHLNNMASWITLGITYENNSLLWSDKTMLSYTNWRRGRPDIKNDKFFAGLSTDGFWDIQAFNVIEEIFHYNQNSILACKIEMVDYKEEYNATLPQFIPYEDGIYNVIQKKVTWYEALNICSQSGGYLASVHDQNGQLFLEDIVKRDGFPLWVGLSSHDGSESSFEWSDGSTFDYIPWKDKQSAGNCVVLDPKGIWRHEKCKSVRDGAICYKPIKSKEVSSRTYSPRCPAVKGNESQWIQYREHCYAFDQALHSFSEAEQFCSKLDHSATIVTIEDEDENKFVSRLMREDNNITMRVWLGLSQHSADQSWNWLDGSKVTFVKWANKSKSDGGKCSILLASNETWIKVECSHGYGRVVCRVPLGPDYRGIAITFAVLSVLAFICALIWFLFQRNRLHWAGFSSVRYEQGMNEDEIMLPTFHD

B1: murine monoclonal antibody 2F2E8E3B6 anti-CTLD-2 (antibody, IgG2a, V domains shown)
VH: EVQLQQSTAEFVKPGASVKLSCTASGFNIKDTYIHWVKQRPEQGLEWIGRIDPANGNTRYDPKFQGKATMTADTSSNTAYLQLSSLTSEDTAVYYCARYDVTYWGQGTLVTVS
VL: DIVMSQSPSSLAVSAGERVTMSCKSSQSLLNSRTRKNYLAWYQQKPGQSPKLLIYWASTRESGVPDRFTGSGSGTDFTLTISSVRAEDLAVYYCKQSYNLYTFGRGTKLEIK
notes: also called 2F2E8D3B6; AbM 2F2E8E3B6
Consider B1, for which the binding result was “no binding”.

Values taken from US20160347841A1 (UNIVERSIDAD NACIONAL AUT NOMA DE M XICO, published 2016).
